The assay addresses ParB2^S68C-AlexaFluor488 (B. subtilis) (UniProt P26497).

B1: ParB2^S68C-AlexaFluor488 (natural protein)
chain: MAKGLGKGINALFNQVDLSEETVEEIKIADLRPNPYQPRKHFDDEALAELKESVLQHGILQPLIVRKCLKGYDIVAGERRFRAAKLAGLDTVPAIVRELSEALMREIALLENLQREDLSPLEEAQAYDSLLKHLDLTQEQLAKRLGKSRPHIANHLRLLTLPENIQQLIAEGTLSMGHGRTLLGLKNKNKLEPLVQKVIAEQLNVRQLEQLIQQLNQNVPRETKKKEPVKDAVLKERESYLQNYFGTTVNIKRQKKKGKIEIEFFSNEDLDRILELLSERES
modifications: Alexa Fluor 488 C5 maleimide coupled to the cysteine of S68C; approximate efficiency of 2 dyes per ParB monomer as printed
For B1, the percentage of single DNA molecules condensed by 250 nM ParB^AF alone at permissive forces, Mg2+ buffer, combined lateral MT-TIRF stood at 83%.

For the origin of these results see article PMC6433461.
